Target: OmpR fused to the VP64 activation domain (E. coli)
Assay: cell-based or functional assay

## EnvZm2 (T247A) (from UniProt A0A4P7TSF2 1-450) (enzyme)
  fold-change of OmpR-driven mKate2 median fluorescence output (6xmCMV37 promoter, HEK-293FT cells), EnvZm2 (kinase) against EnvZm1 (D244A phosphatase, SEQ ID NO: 2), at the highest levels of OmpR: 40 fold
  fold-change of mKate2 median fluorescence output from the strongest OmpR promoter when the kinase (EnvZm2) or the phosphatase (EnvZm1) was present, HEK-293FT cells: 500 fold
  relative kinase strength against EnvZm1 phosphatase, from OmpR-driven mKate2 output in kinase titrations (Open-loop against Const. P), HEK-293FT cells: < 3 fold

— patent US20230235334A1
